# Experiments:
# [1] = molecular target: Fc receptor on THP-1 cells; test: cell-based or functional assay
# [2] = molecular target: T1, BSA (UniProt P02769 25-607); test: ELISA, BSA-coated Maxisorb plate, dilutions of fusion protein, anti-human IgG1 immunodetection complex, A405
# T1 construct: also called BSA coating alone; BSA+wash
# Method: Known RAGE ligands were coated onto the surface of Maxisorb plates at a concentration of 5 micrograms per well. Plates were incubated at 4° C. overnight. Following ligand incubation, plates were aspirated and a blocking buffer of 1% BSA in 50 mM imidizole buffer (pH 7.2) was added to the plates for 1 hour at room temperature. The plates were then aspirated and/or washed with wash buffer (20 mM Imidizole, 150 mM NaCl, 0.05% Tween-20, 5 mM CaCl₂ and 5 mM MgCl₂, pH 7.2). […] The RAGE fusion protein was added at increasing dilutions of the initial sample. The RAGE fusion protein was allowed to incubate with the immobilized ligand at 37° C. for one hour after which the plate was washed and assayed for binding of the RAGE fusion protein. Binding was detected by the addition of an immunodetection complex containing a monoclonal mouse anti-human IgG1 diluted 1:11,000 to a final assay concentration (FAC) of 21 ng/100 μL, a biotinylated goat anti-mouse IgG diluted 1:500, to a FAC of […], and an avidin-linked alkaline phosphatase. […] Binding of the complex to the immobilized RAGE fusion protein was quantified by measuring conversion of PNPP to para-nitrophenol (PNP) which was measured spectrophotometrically at 405 nm.
# T1 sequence (P02769 25-607 limits assumed): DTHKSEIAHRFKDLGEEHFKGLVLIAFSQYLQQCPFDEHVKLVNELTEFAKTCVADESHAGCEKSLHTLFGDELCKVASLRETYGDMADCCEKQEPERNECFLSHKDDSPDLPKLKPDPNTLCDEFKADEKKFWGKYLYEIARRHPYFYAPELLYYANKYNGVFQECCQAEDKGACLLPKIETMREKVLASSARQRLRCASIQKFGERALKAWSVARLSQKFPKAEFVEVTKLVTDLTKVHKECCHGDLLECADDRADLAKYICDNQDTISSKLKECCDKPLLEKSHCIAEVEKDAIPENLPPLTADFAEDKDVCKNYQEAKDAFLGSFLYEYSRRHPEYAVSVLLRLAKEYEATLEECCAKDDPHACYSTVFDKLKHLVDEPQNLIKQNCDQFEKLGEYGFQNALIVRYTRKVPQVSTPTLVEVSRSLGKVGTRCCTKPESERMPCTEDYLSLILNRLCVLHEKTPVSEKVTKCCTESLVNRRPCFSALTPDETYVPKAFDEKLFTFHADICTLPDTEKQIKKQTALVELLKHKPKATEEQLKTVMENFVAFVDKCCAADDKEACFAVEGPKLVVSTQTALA
Molecule,TNF-α secreted by THP-1 cells on wells coated with 10 ug/well heat aggregated protein [1],binding result [2]
human IgG1 (heat aggregated) (antibody),> 40 ng/well,–
"RAGE fusion protein TTP-4000 (Fc fusion, N-terminal residue glutamine (Q) or pyroglutamic acid (pE) or a mixture thereof; glycosylation sites at N2 and N288 (numbering of SEQ ID NO: 34 or 56); C-terminal residue of CH3 may be cleaved off, Produced in CHO cells; also called TT4; four domain RAGE fusion protein) QNITARIGEPLVLKCKGAPKKPPQRLEWKLNTGRTEAWKVLSPQGGGPWDSVARVLPNGSLFLPAVGIQDEGIFRCQAMNRNGKETKSNYRVRVYQIPGKPEIVDSASELTAGVPNKVGTCVSEGSYPAGTLSWHLDGKPLVPNEKGVSVKEQTRRHPETGLFTLQSELMVTPARGGDPRPTFSCSFSPGLPRHRALRTAPIQPRVWEPVPLEEVQLVVEPEGGAVAPPSVFLFPPKPKDTLMISRTPEVTCVVVDVSHEDPEVKFNWYVDGVEVHNAKTKPREEQYNSTYRVVSVLTVLHQDWLNGKEYKCKVSNKALPAPIEKTISKAKGQPREPQVYTLPPSRDELTKNQVSLTCLVKGFYPSDIAVEWESNGQPENNYKTTPPVLDSDGSFFLYSKLTVDKSRWQQGNVFSCSVMHEALHNHYTQKSLSLSPGK",–,no binding
"RAGE fusion protein TTP-3000 (Fc fusion, N-terminal residue may be glutamine (Q) or pyroglutamic acid (pE) or a mixture thereof; C-terminal residue may be cleaved off, the N-terminus of TTP-3000 was not confirmed by experiment; also called TT3; three domain RAGE fusion protein) QNITARIGEPLVLKCKGAPKKPPQRLEWKLNTGRTEAWKVLSPQGGGPWDSVARVLPNGSLFLPAVGIQDEGIFRCQAMNRNGKETKSNYRVRVYQIPGKPEIVDSASELTAGPSVFLFPPKPKDTLMISRTPEVTCVVVDVSHEDPEVKFNWYVDGVEVHNAKTKPREEQYNSTYRVVSVLTVLHQDWLNGKEYKCKVSNKALPAPIEKTISKAKGQPREPQVYTLPPSRDELTKNQVSLTCLVKGFYPSDIAVEWESNGQPENNYKTTPPVLDSDGSFFLYSKLTVDKSRWQQGNVFSCSVMHEALHNHYTQKSLSLSPGK",–,no binding

# Reference: US20080045455A1 (TRANSTECH PHARMA, published 2008)
